The test system of one assay is cell membrane TβRII. Briefly: Cell membrane TβRII protein (biotin labelling, immunoprecipitation, Western blotting). The class given is cell-based, human. The note with it: HAPLN1 25 ng/mL and/or HA 25 μg/mL; TGF-β2 2 ng/mL. The protocol:
All proteins present in the cell membrane were labeled with biotin, and immunoprecipitation was performed with a biotin antibody to isolate only the cell membrane protein. In order to confirm changes in the ratio of TβRII among cell membrane proteins, Western blotting was performed. The specific experimental method will now be described.
Human hair germinal matrix cells were dispensed into a poly-D-lysine 100 mm dish at a concentration of 2.7×10^6 and cultured for 24 hours. After 24 hours, the medium was removed and replaced with a new serum-free medium. HAPLN1 was treated with 25 ng/mL and HA with 25 μg/mL, and after 1 hour, TGF-β2 (2 ng/mL) was treated. To label biotin after 23 hours, EZ-Link™ Sulfo-NHS-LC-Biotin (Thermo Fisher Scientific, MA, USA) was treated at a concentration of 250 μg/mL and incubated at 4° C. for 1 hour. The biotin labeling reaction was terminated by treatment with 50 mM Tris-HCl. After collecting cells, a lysis buffer (50 mM Tris-HCl, 150 mM NaCl, 1% NP-40, phosphatase inhibitor, and protease inhibitor) was added, and all the cells were broken through sonication. Cell membrane proteins were isolated by performing immunoprecipitation experiments using anti-biotin antibodies. TβRII in the isolated membrane protein sample was measured using Western blotting. The optical density of TβRII was compared to that of GAPDH using a densitometer.
In general terms: A western blot detects proteins with antibodies after separation by electrophoresis.

Assay [1] relates to human hair germinal matrix cells. Description: Hair germinal matrix cell proliferating effect, CCK-8 (Example 13). Format: cell-based. As to conditions: 25 ng/ml. The protocol:
In the same manner as described above, HAPLN1 (25 ng/ml), CX3CL1 (25 ng/ml), CDON (25 ng/ml) or minoxidil (10 μM), and human recombinant TGF-β2 were diluted to a final concentration of 2 ng/ml, and the medium of the group containing TGF-β2 was replaced by 200 μl. To reduce an experimental variation, 3 wells per group were treated (triplication).
After incubation for 23 hours, the plate was removed from the incubator, and 20 μl of CCK-8 (WST-8) solution was added to the plate containing the medium and the reagent per 200 μl of the medium for the reaction to be carried out at 37° C. for 1 hour.
Human hair germinal matrix cells were released in a poly-D-lysine-coated flask using a mesenchymal stem cell medium (MSCM), and cultured in a 5% CO2 incubator at 37° C. When the cells were about 90% full, the cells were detached with a 0.05% Trypsin/EDTA solution, and then only the cells were recovered by centrifugation at 1000 rpm for 3 minutes. The recovered cells were dispensed into 96-well poly-D-lysine coated plates (BD bioscience) at 2.0×10^3 per well and cultured for 24 hours, and the final concentrations of HAPLN1, CX3CL1 and CDON were diluted to 25 ng/ml in a serum-free medium. The subsequent process was performed in the same manner as the experiment for the dermal papilla cells to measure the absorbance, and the results are shown in FIG. 22.

A further assay deals with HAS2. Briefly: HAS2 protein in human hair germinal matrix cells deficient in endogenous HA (4-MU). Format: cell-based. As to conditions: 4-MU-treated cells; HAPLN1 25 ng/mL; TGF-β2 2 ng/mL. The protocol: 4-MU (4-methylumbelliferone) is an inhibitor of HA-producing hyaluronan synthase 2 (HAS2), which produces HA. In order to confirm the effect of HA produced in cells, HA production in cells was inhibited using 4-MU.
The human hair germinal matrix cells, in which the endogenous HA was inhibited by treating 4-MU, were dispensed into a poly-D-lysine 6-well plate at a concentration of 5.0×10^4 per well and cultured for 24 hours. After 24 hours, the medium was removed and replaced with a new serum-free medium. HAPLN1 was treated with 25 ng/mL, and after 1 hour, TGF-β2 (2 ng/mL) was treated. After 23 hours, cells were collected, a lysis buffer (25 mM Tris-HCl, 1 mM EDTA, 0.1% Triton-X100, phosphatase inhibitor, and protease inhibitor) was added, and all the cells were broken through sonication. HAS2 and TβRII in the sample were measured using Western blotting. The optical density of each of HAS2 and TβRII was compared to that of GAPDH using a densitometer.

The test system of assay [2] is TβRII. Briefly: TβRII protein in human hair germinal matrix cells treated with HAPLN1 by concentration (Western blotting). The class given is cell-based. The note with it: 20 ng/mL of HAPLN1, 24 hours, serum-free medium. The protocol: HAPLN1 was treated on human hair germinal matrix cells by concentration. Specifically, human hair germinal matrix cells (HHGMC) were dispensed into a poly-D-lysine 6-well plate at 5.0×10^4 per well and cultured for 24 hours. After 24 hours, the medium was removed and replaced with a new serum-free medium. HAPLN1 was treated with 0, 5, 10, 20 ng/mL and incubated for 24 hours. After collecting cells, a lysis buffer (25 mM Tris-HCl, 1 mM EDTA, 0.1% Triton-X100, phosphatase inhibitor, and protease inhibitor) was added, and all the cells were broken through sonication. TβRII in the sample was measured using Western blotting. The optical density of TβRII was compared to that of GAPDH using a densitometer (that is, TβRII optical concentration GAPDH optical concentration). Here, GAPDH was used as a loading control.

Assay [3] relates to TβRII. Briefly: TβRII protein after HAPLN1 and/or HA in CD44-deficient human hair germinal matrix cells. Format: cell-based. As to conditions: after CD44 siRNA; HAPLN1 25 ng/mL and/or HA 25 μg/mL; TGF-β2 2 ng/mL, 23 hours. As to the method: The human hair germinal matrix cells, which were made to be deficient in CD44 by using CD44 siRNA, were dispensed into a poly-D-lysine 6-well plate at a concentration of 5.0×10^4 per well and cultured for 24 hours. After 24 hours, the medium was removed and replaced with a low-serum medium. CD44 siRNA and scrambled siRNA were added at a concentration of 25 pmol per well and incubated for 24 hours. After the siRNA and the medium were all removed, the medium was replaced with a serum-free medium having HAPLN1 (25 ng/mL) or HA (25 μg/mL) added thereto, and cultured for 1 hour. TGF-β2 (2 ng/mL) was treated and incubated for 23 hours. After collecting cells, a lysis buffer (25 mM Tris-HCl, 1 mM EDTA, 0.1% Triton-X100, phosphatase inhibitor, and protease inhibitor) was added, and all the cells were broken through sonication. TβRII in the sample was measured using Western blotting. The optical density of TβRII was compared to that of GAPDH using a densitometer.

B1: hyaluronan and proteoglycan link protein 1 (protein, UniProt P10915 16-354, looked up)
Hyaluronan and proteoglycan …: DHLSDNYTLDHDRAIHIQAENGPHLLVEAEQAKVFSHRGGNVTLPCKFYRDPTAFGSGIHKIRIKWTKLTSDYLKEVDVFVSMGYHKKTYGGYQGRVFLKGGSDSDASLVITDLTLEDYGRYKCEVIEGLEDDTVVVALDLQGVVFPYFPRLGRYNLNFHEAQQACLDQDAVIASFDQLYDAWRGGLDWCNAGWLSDGSVQYPITKPREPCGGQNTVPGVRNYGFWDKDKSRYDVFCFTSNFNGRFYYLIHPTKLTYDEAVQACLNDGAQIAKVGQIFAAWKILGYDRCDAGWLADGSVRYPISRPRRRCSPTEAAVRFVGFPDKKHKLYGVYCFRAYN
notes: extracellular matrix protein found in cartilage; stabilizes aggregates of hyaluronic acid and proteoglycans
Consider B1, for which the “cell membrane TβRII protein concentration” value in the assay on cell membrane TβRII is “increased”. In addition, the “hair germinal matrix cell proliferation (absorbance at 450 nm)” value is listed as “significant hair germinal matrix cell proliferating activity” in assay [1] (absence of TGF-β2) and “particularly superior hair germinal matrix cell proliferating activity” in assay [1] (presence of TGF-β2 (2 ng/ml)). For the same molecule, the HAS2 level result in the assay with HAS2 is reported as “recovered”. Moreover, the “TβRII protein (optical density compared to GAPDH)” value in the assay with TβRII [2] is on record as “increased”. The “TβRII protein in CD44-deficient cells” value with TβRII [3] is given as “not confirmed that TβRII was recovered”.

For the origin of these results see patent US20220202899A1, “COMPOSITION FOR PREVENTION OR TREATMENT OF HAIR LOSS INCLUDING HAPLN1” (HAPLNSCIENCE INC., priority 2019, published 2022).
